Measured values as given in the supplement of paper PMC5998384.

Columns and labels:
HeLa Kyoto [1] = test: solubility in G1/S (NP-40 vs SDS abundance) (log2 ratio); higher = more soluble; conditions: cell cycle stage: G1/S
HeLa Kyoto [2] = test: solubility change mitosis vs G1/S (difference of NP-40 vs SDS log2 ratios) (log2 ratio difference); higher = more soluble in mitosis
HeLa Kyoto [3] = test: melting temperature (median over replicates), in situ; higher = more thermally stable
HeLa Kyoto [4] = test: thermal stability score vs G1/S (z-score of summed log2 fold changes over temperatures); higher = more thermally stable than in G1/S
[5] = cell cycle stage: early G1 (4.5 h after nocodazole release)
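Wherever melting temperature (median over replicates), in situ is given: HeLa Kyoto cells synchronized by double thymidine or nocodazole block, proteins quantified by TMT10plex mass spectrometry, three independent biological replicates.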
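Wherever solubility change mitosis vs G1/S (difference of NP-40 vs SDS log2 ratios) is given: synchronized HeLa Kyoto cells (double thymidine block for G1/S, nocodazole release for mitosis), protein amounts in NP-40 versus SDS lysates quantified by mass spectrometry, three biological replicates.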
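Wherever solubility in G1/S (NP-40 vs SDS abundance) is given: HeLa Kyoto cells arrested at G1/S by double thymidine block, proteins quantified by TMT10plex mass spectrometry in mild NP-40 versus SDS extracts, three biological replicates.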
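Wherever thermal stability score vs G1/S (z-score of summed log2 fold changes over temperatures) is given: synchronized HeLa Kyoto cells, proteins quantified by TMT10plex mass spectrometry, three biological replicates, mitosis taken 0.5 h after nocodazole release, G1/S directly after double thymidine block.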

Row | Sequence | solubility in G1/S (log2) (HeLa Kyoto [1]) | solubility change mitosis (log2) (HeLa Kyoto [2]) | melting temperature (HeLa Kyoto [3]; cell cycle stage: G1/S) [°C] | melting temperature (HeLa Kyoto [3]; cell cycle stage: mitosis) [°C] | thermal stability score (HeLa Kyoto [4]; [5]) | thermal stability score (HeLa Kyoto [4]; cell cycle stage: mitosis)
1 | MAAQSSLYNDDRNLLRIREKERRNQEAHQEKEAFPEKIPLFGEPYKTAKGDELSSRIQNMLGNYEEVKEFLSTKSHTHRLDASENRLGKPKYPLIPDKGSSIPSSSFHTSVHHQSIHTPASGPLSVGNISHNPKMAQPRTEPMPSLHAKSCGPPDSQHLTQDRLGQEGFGSSHHKKGDRRADGDHCASVTDSAPERELSPLISLPSPVPPLSPIHSNQQTLPRTQGSSKVHGSSNNSKGYCPAKSPKDLAVKVHDKETPQDSLVAPAQPPSQTFPPPSLPSKSVAMQQKPTAYVRPMDGQDQAPSESPELKPLPEDYRQQTFEKTDLKVPAKAKLTKLKMPSQSVEQTYSNEVHCVEEILKEMTHSWPPPLTAIHTPSTAEPSKFPFPTKDSQHVSSVTQNQKQYDTSSKTHSNSQQGTSSMLEDDLQLSDSEDSDSEQTPEKPPSSSAPPSAPQSLPEPVASAHSSSAESESTSDSDSSSDSESESSSSDSEENEPLETPAPEPEPPTTNKWQLDNWLTKVSQPAAPPEGPRSTEPPRRHPESKGSSDSATSQEHSESKDPPPKSSSKAPRAPPEAPHPGKRSCQKSPAQQEPPQRQTVGTKQPKKPVKASARAGSRTSLQGEREPGLLPYGSRDQTSKDKPKVKTKGRPRAAASNEPKPAVPPSSEKKKHKSSLPAPSKALSGPEPAKDNVEDRTPEHFALVPLTESQGPPHSGSGSRTSGCRQAVVVQEDSRKDRLPLPLRDTKLLSPLRDTPPPQSLMVKITLDLLSRIPQPPGKGSRQRKAEDKQPPAGKKHSSEKRSSDSSSKLAKKRKGEAERDCDNKKIRLEKEIKSQSSSSSSSHKESSKTKPSRPSSQSSKKEMLPPPPVSSSSQKPAKPALKRSRREADTCGQDPPKSASSTKSNHKDSSIPKQRRVEGKGSRSSSEHKGSSGDTANPFPVPSLPNGNSKPGKPQVKFDKQQADLHMREAKKMKQKAELMTDRVGKAFKYLEAVLSFIECGIATESESQSSKSAYSVYSETVDLIKFIMSLKSFSDATAPTQEKIFAVLCMRCQSILNMAMFRCKKDIAIKYSRTLNKHFESSSKVAQAPSPCIASTGTPSPLSPMPSPASSVGSQSSAGSVGSSGVAATISTPVTIQNMTSSYVTITSHVLTAFDLWEQAEALTRKNKEFFARLSTNVCTLALNSSLVDLVHYTRQGFQQLQELTKTP [AFF1] | -0.222 | 0.121 | 49.6 | 51.8 | 0.0483 | -0.483
2 | MAARVLRARGAAWAGGLLQRAAPCSLLPRLRTWTSSSNRSREDSWLKSLFVRKVDPRKDAHSNLLAKKETSNLYKLQFHNVKPECLEAYNKICQEVLPKIHEDKHYPCTLVGTWNTWYGEQDQAVHLWRYEGGYPALTEVMNKLRENKEFLEFRKARSDMLLSRKNQLLLEFSFWNEPVPRSGPNIYELRSYQLRPGTMIEWGNYWARAIRFRQDGNEAVGGFFSQIGQLYMVHHLWAYRDLQTREDIRNAAWHKHGWEELVYYTVPLIQEMESRIMIPLKTSPLQ [GBAS] | 0.0162 | -0.0463 | 53.7 | 53.3 | -0.626 | -0.959
3 | MAASASAAAGEEDWVLPSEVEVLESIYLDELQVIKGNGRTSPWEIYITLHPATAEDQDSQYVCFTLVLQVPAEYPHEVPQISIRNPRGLSDEQIHTILQVLGHVAKAGLGTAMLYELIEKGKEILTDNNIPHGQCVICLYGFQEKEAFTKTPCYHYFHCHCLARYIQHMEQELKAQGQEQEQERQHATTKQKAVGVQCPVCREPLVYDLASLKAAPEPQQPMELYQPSAESLRQQEERKRLYQRQQERGGIIDLEAERNRYFISLQQPPAPAEPESAVDVSKGSQPPSTLAAELSTSPAVQSTLPPPLPVATQHICEKIPGTRSNQQRLGETQKAMLDPPKPSRGPWRQPERRHPKGGECHAPKGTRDTQELPPPEGPLKEPMDLKPEPHSQGVEGPPQEKGPGSWQGPPPRRTRDCVRWERSKGRTPGSSYPRLPRGQGAYRPGTRRESLGLESKDGS [RNF25] | 0.537 | 0.00785 | 52.7 | 52.7 | -0.22 | -0.474
4 | MAASCVLLHTGQKMPLIGLGTWKSEPGQVKAAVKYALSVGYRHIDCAAIYGNEPEIGEALKEDVGPGKAVPREELFVTSKLWNTKHHPEDVEPALRKTLADLQLEYLDLYLMHWPYAFERGDNPFPKNADGTICYDSTHYKETWKALEALVAKGLVQALGLSNFNSRQIDDILSVASVRPAVLQVECHPYLAQNELIAHCQARGLEVTAYSPLGSSDRAWRDPDEPVLLEEPVVLALAEKYGRSPAQILLRWQVQRKVICIPKSITPSRILQNIKVFDFTFSPEEMKQLNALNKNWRYIVPMLTVDGKRVPRDAGHPLYPFNDPY [AKR1A1] | 0.534 | -0.00767 | 52.1 | 52.7 | -0.223 | -1.09
5 | MAASEAAVVSSPSLKTDTSPVLETAGTVAAMAATPSARAAAAVVAAAARTGSEARVSKAALATKLLSLSGVFAVHKPKGPTSAELLNRLKEKLLAEAGMPSPEWTKRKKQTLKIGHGGTLDSAARGVLVVGIGSGTKMLTSMLSGSKRYTAIGELGKATDTLDSTGRVTEEKPYDKITQEDIEGILQKFTGNIMQVPPLYSALKKDGQRLSTLMKRGEVVEAKPARPVTVYSISLQKFQPPFFTLDVECGGGFYIRSLVSDIGKELSSCANVLELTRTKQGPFTLEEHALPEDKWTIDDIAQSLEHCSSLFPAELALKKSKPESNEQVLSCEYITLNEPKREDDVIKTC [TRUB1] | 0.549 | -0.0378 | 50.2 | 50.2 | 1.48 | 1.46
6 | MAASEVAGVVANAPSPPESSSLCASKSDEGLPDGLSTKDSAQKQKNSPLLSVSSQTITKENNRNVHLEHSEQNPGSSAGDTSAAHQVVLGENLIATALCLSGSGSQSDLKDVASTAGEEGDTSLRESLHPVTRSLKAGCHTKQLASRNCSEEKSPQTSILKEGNRDTSLDFRPVVSPANGVEGVRVDQDDDQDSSSLKLSQNIAVQTDFKTADSEVNTDQDIEKNLDKMMTERTLLKERYQEVLDKQRQVENQLQVQLKQLQQRREEEMKNHQEILKAIQDVTIKREETKKKIEKEKKEFLQKEQDLKAEIEKLCEKGRREVWEMELDRLKNQDGEINRNIMEETERAWKAEILSLESRKELLVLKLEEAEKEAELHLTYLKSTPPTLETVRSKQEWETRLNGVRIMKKNVRDQFNSHIQLVRNGAKLSSLPQIPTPTLPPPPSETDFMLQVFQPSPSLAPRMPFSIGQVTMPMVMPSADPRSLSFPILNPALSQPSQPSSPLPGSHGRNSPGLGSLVSPHGPHMPPAASIPPPPGLGGVKASAETPRPQPVDKLEKILEKLLTRFPQCNKAQMTNILQQIKTARTTMAGLTMEELIQLVAARLAEHERVAASTQPLGRIRALFPAPLAQISTPMFLPSAQVSYPGRSSHAPATCKLCLMCQKLVQPSELHPMACTHVLHKECIKFWAQTNTNDTCPFCPTLK [RNF214] | 0.486 | -0.0773 | 49.8 | 51.5 | -0.221 | -0.95
7 | MAASGAVEPGPPGAAVAPSPAPAPPPAPDHLFRPISAEDEEQQPTEIESLCMNCYCNGMTRLLLTKIPFFREIIVSSFSCEHCGWNNTEIQSAGRIQDQGVRYTLSVRALEDMNREVVKTDSAATRIPELDFEIPAFSQKGALTTVEGLITRAISGLEQDQPARRANKDATAERIDEFIVKLKELKQVASPFTLIIDDPSGNSFVENPHAPQKDDALVITHYNRTRQQEEMLGLQEEAPAEKPEEEDLRNEVLQFSTNCPECNAPAQTNMKLVQIPHFKEVIIMATNCENCGHRTNEVKSGGAVEPLGTRITLHITDASDMTRDLLKSETCSVEIPELEFELGMAVLGGKFTTLEGLLKDIRELVTKNPFTLGDSSNPGQTERLQEFSQKMDQIIEGNMKAHFIMDDPAGNSYLQNVYAPEDDPEMKVERYKRTFDQNEELGLNDMKTEGYEAGLAPQR [ZPR1] | 0.433 | -0.0376 | 52.6 | 52.5 | -0.562 | -0.171
8 | MAASMCDVFSFCVGVAGRARVSVEVRFVSSAKGKGLFATQLIRKGETIFVERPLVAAQFLWNALYRYRACDHCLRALEKAEENAQRLTGKPGQVLPHPELCTVRKDLHQNCPHCQVMYCSAECRLAATEQYHQVLCPGPSQDDPLHPLNKLQEAWRSIHYPPETASIMLMARMVATVKQAKDKDRWIRLFSQFCNKTANEEEEIVHKLLGDKFKGQLELLRRLFTEALYEEAVSQWFTPDGFRSLFALVGTNGQGIGTSSLSQWVHACDTLELKPQDREQLDAFIDQLYKDIEAATGEFLNCEGSGLFVLQSCCNHSCVPNAETSFPENNFLLHVTALEDIKPGEEICISYLDCCQRERSRHSRHKILRENYLFVCSCPKCLAEADEPNVTSEEEEEEEEEEEGEPEDAELGDEMTDV [SMYD5] | -0.147 | -0.154 | 53.4 | 53.1 | 1.21 | -0.768
9 | MAASMFYGRLVAVATLRNHRPRTAQRAAAQVLGSSGLFNNHGLQVQQQQQRNLSLHEYMSMELLQEAGVSVPKGYVAKSPDEAYAIAKKLGSKDVVIKAQVLAGGRGKGTFESGLKGGVKIVFSPEEAKAVSSQMIGKKLFTKQTGEKGRICNQVLVCERKYPRREYYFAITMERSFQGPVLIGSSHGGVNIEDVAAESPEAIIKEPIDIEEGIKKEQALQLAQKMGFPPNIVESAAENMVKLYSLFLKYDATMIEINPMVEDSDGAVLCMDAKINFDSNSAYRQKKIFDLQDWTQEDERDKDAAKANLNYIGLDGNIGCLVNGAGLAMATMDIIKLHGGTPANFLDVGGGATVHQVTEAFKLITSDKKVLAILVNIFGGIMRCDVIAQGIVMAVKDLEIKIPVVVRLQGTRVDDAKALIADSGLKILACDDLDEAARMVVKLSEIVTLAKQAHVDVKFQLPI [SUCLA2] | 0.0965 | -0.0729 | 49.7 | 49.8 | -0.13 | 1.1
10 | MAASRWARKAVVLLCASDLLLLLLLLPPPGSCAAEGSPGTPDESTPPPRKKKKDIRDYNDADMARLLEQWEKDDDIEEGDLPEHKRPSAPVDFSKIDPSKPESILKMTKKGKTLMMFVTVSGSPTEKETEEITSLWQGSLFNANYDVQRFIVGSDRAIFMLRDGSYAWEIKDFLVGQDRCADVTLEGQVYPGKGGGSKEKNKTKQDKGKKKKEGDLKSRSSKEENRAGNKREDL [MESDC2] | 0.269 | -0.0464 | 55.5 | 56.3 | 3.56 | 2.22
11 | MAATASAGAGGIDGKPRTSPKSVKFLFGGLAGMGATVFVQPLDLVKNRMQLSGEGAKTREYKTSFHALTSILKAEGLRGIYTGLSAGLLRQATYTTTRLGIYTVLFERLTGADGTPPGFLLKAVIGMTAGATGAFVGTPAEVALIRMTADGRLPADQRRGYKNVFNALIRITREEGVLTLWRGCIPTMARAVVVNAAQLASYSQSKQFLLDSGYFSDNILCHFCASMISGLVTTAASMPVDIAKTRIQNMRMIDGKPEYKNGLDVLFKVVRYEGFFSLWKGFTPYYARLGPHTVLTFIFLEQMNKAYKRLFLSG [SLC25A11] | -0.0956 | -0.187 | 59.1 | 59.8 | -1.46 | -2.54
12 | MAATFFGEVVKAPCRAGTEDEEEEEEGRRETPEDREVRLQLARKREVRLLRRQTKTSLEVSLLEKYPCSKFIIAIGNNAVAFLSSFVMNSGVWEEVGCAKLWNEWCRTTDTTHLSSTEAFCVFYHLKSNPSVFLCQCSCYVAEDQQYQWLEKVFGSCPRKNMQITILTCRHVTDYKTSESTGSLPSPFLRALKTQNFKDSACCPLLEQPNIVHDLPAAVLSYCQVWKIPAILYLCYTDVMKLDLITVEAFKPILSTRSLKGLVKNIPQSTEILKKLMTTNEIQSNIYT [PSMG1] | 0.0966 | -0.142 | 54.7 | 54.4 | -0.428 | -1.27
13 | MAATGANAEKAESHNDCPVRLLNPNIAKMKEDILYHFNLTTSRHNFPALFGDVKFVCVGGSPSRMKAFIRCVGAELGLDCPGRDYPNICAGTDRYAMYKVGPVLSVSHGMGIPSISIMLHELIKLLYYARCSNVTIIRIGTSGGIGLEPGTVVITEQAVDTCFKAEFEQIVLGKRVIRKTDLNKKLVQELLLCSAELSEFTTVVGNTMCTLDFYEGQGRLDGALCSYTEKDKQAYLEAAYAAGVRNIEMESSVFAAMCSACGLQAAVVCVTLLNRLEGDQISSPRNVLSEYQQRPQRLVSYFIKKKLSKA [UPP1] | 0.102 | -0.279 | 56.8 | 56.3 | -4.67 | -3.64
